Assay results published in patent US20160310583A1 (SUMITOMO DAINIPPON PHARMA, published 2016).
Where two headings read alike, the source gives them in different places.

B1: FAM83B-derived peptide F257_10 (peptide)
peptide: MVQIITGQLV
B2: FAM83B-derived peptide F335_11 (peptide)
peptide: SYFKNRGIYTL
B3: FAM83B-derived peptide F305_12 (peptide)
peptide: TYQHSVSSLASV
B4: FAM83B-derived peptide F238_13 (peptide)
peptide: KVMYGSYSYMWSF
B5: FAM83B-derived peptide F47_10 (peptide)
peptide: LVQERVSDFL
B6: FAM83B-derived peptide F245_11 (peptide)
peptide: SYMWSFEKAHL
B7: FAM83B-derived peptide F149_10 (peptide)
peptide: VIALVMDIFT
B8: FAM83B-derived peptide F466_11 (peptide)
peptide: SFNGTDNHIRF
B9: FAM83B-derived peptide F27_10 (peptide)
peptide: WYRVAIDILI
B10: FAM83B-derived peptide F86_10 (peptide)
peptide: TLSSGTYWPV
B11: FAM83B-derived peptide F55_10 (peptide)
peptide: FLAEEEINYI
B12: FAM83B-derived peptide F276_11 (peptide)
peptide: LYARSCVPSSF
B13: FAM83B-derived peptide F148_10 (peptide)
peptide: KVIALVMDIF
B14: FAM83B-derived peptide F131_9 (peptide)
peptide: HLLTIKETI
B15: FAM83B-derived peptide F239_12 (peptide)
peptide: VMYGSYSYMWSF
B16: FAM83B-derived peptide F256_11 (peptide)
peptide: SMVQIITGQLV
B17: FAM83B-derived peptide F62_10 (peptide)
peptide: NYILKNVQKV
B18: FAM83B-derived peptide F23_10 (peptide)
peptide: HYKEWYRVAI
B19: FAM83B-derived peptide F114_11 (peptide)
peptide: GLLGGTHIDLL
B20: FAM83B-derived peptide F148_9 (peptide)
peptide: KVIALVMDI
B21: FAM83B-derived peptide F476_9 (peptide)
peptide: FLQQRMPTL
B22: FAM83B-derived peptide F594_9 (peptide)
peptide: PLPESIPKL
B23: FAM83B-derived peptide F593_10 (peptide)
peptide: KPLPESIPKL
B24: FAM83B-derived peptide F38_11 (peptide)
peptide: HGLEAYQEFLV
B25: FAM83B-derived peptide F176_10 (peptide)
peptide: VYILLDESNF
B26: FAM83B-derived peptide F939_9 (peptide)
peptide: PFCKIESSI
B27: FAM83B-derived peptide F971_9 (peptide)
peptide: SYGRSSPLL
B28: FAM83B-derived peptide F475_10 (peptide)
peptide: RFLQQRMPTL
B29: FAM83B-derived peptide F179_11 (peptide)
peptide: LLDESNFNHFL
B30: FAM83B-derived peptide F46_11 (peptide)
peptide: FLVQERVSDFL
B31: FAM83B-derived peptide F153_11 (peptide)
peptide: VMDIFTDVDIF
B32: FAM83B-derived peptide SF_9 (peptide)
peptide: SYQPNENKF
notes: also called FAM83B peptide
B33: FAM83B-derived peptide F63_9 (peptide)
peptide: YILKNVQKV
B34: FAM83B-derived peptide F799_10 (peptide)
peptide: RLCSSSDTLV
B35: FAM83B-derived peptide F18_10 (peptide)
peptide: NYIEPHYKEW
B36: FAM83B-derived peptide F107_10 (peptide)
peptide: GWPYVMPGLL
B37: FAM83B-derived peptide F305_9 (peptide)
peptide: TYQHSVSSL
B38: FAM83B-derived peptide F239_10 (peptide)
peptide: VMYGSYSYMW
B39: FAM83B-derived peptide F231_10 (peptide)
peptide: FLLVDCQKVM
B40: FAM83B-derived peptide F103_9 (peptide)
peptide: NLDLGWPYV
B41: FAM83B-derived peptide F55_11 (peptide)
peptide: FLAEEEINYIL
B42: FAM83B-derived peptide F151_10 (peptide)
peptide: ALVMDIFTDV

How the values were obtained:
Assay in all cases: MHC class I stabilization on T2-A24 cells, flow cytometry, 100 ug/mL peptide
HLA-A*24:02 [1] = target: T1, HLA-A*24:02 (human)
T1 construct: whole, on cells; MHC class I molecule, empty until peptide is added; detected with FITC anti-HLA-A24 antibody 17A10

HLA-A*02:01 [2] = target: T2, HLA-A*02:01 (human)
T2 construct: whole, on cells; MHC class I molecule, empty until peptide is added; detected with FITC anti-HLA-A02 antibody BB7.2

HLA-A*02:01 [3] = target: T2, HLA-A*02:01; remark: listed apart in the source
HLA-A*24:02 [4] = target: T1, HLA-A*24:02; remark: listed apart in the source

Binder	MFI (solvent ratio) (HLA-A*24:02 [1])	MFI (solvent ratio) (HLA-A*02:01 [2])	MFI (solvent ratio) (HLA-A*02:01 [3])	MFI (solvent ratio) (HLA-A*24:02 [4])
B1	1.1 ratio to solvent	1.9 ratio to solvent	≥ 1.5 ratio to solvent	
B2	2.3 ratio to solvent	1 ratio to solvent		≥ 1.5 ratio to solvent
B3	3.1 ratio to solvent	2 ratio to solvent	≥ 1.5 ratio to solvent	≥ 1.5 ratio to solvent
B4	5.1 ratio to solvent	1.2 ratio to solvent		≥ 1.5 ratio to solvent
B5	1.5 ratio to solvent	1.1 ratio to solvent		≥ 1.5 ratio to solvent
B6	2.9 ratio to solvent	1.5 ratio to solvent	≥ 1.5 ratio to solvent	≥ 1.5 ratio to solvent
B7	2.1 ratio to solvent	1.3 ratio to solvent		≥ 1.5 ratio to solvent
B8	1.7 ratio to solvent	1 ratio to solvent		≥ 1.5 ratio to solvent
B9	3.2 ratio to solvent	1.2 ratio to solvent		≥ 1.5 ratio to solvent
B10	1 ratio to solvent	3 ratio to solvent	≥ 1.5 ratio to solvent	
B11	1.2 ratio to solvent	3.5 ratio to solvent	≥ 1.5 ratio to solvent	
B12	3.4 ratio to solvent	1.2 ratio to solvent		≥ 1.5 ratio to solvent
B13	2.6 ratio to solvent	1.1 ratio to solvent		≥ 1.5 ratio to solvent
B14	2.4 ratio to solvent	1.5 ratio to solvent	≥ 1.5 ratio to solvent	≥ 1.5 ratio to solvent
B15	4 ratio to solvent	1.6 ratio to solvent	≥ 1.5 ratio to solvent	≥ 1.5 ratio to solvent
B16	1.1 ratio to solvent	3.2 ratio to solvent	≥ 1.5 ratio to solvent	
B17	1.6 ratio to solvent	2.9 ratio to solvent	≥ 1.5 ratio to solvent	≥ 1.5 ratio to solvent
B18	3 ratio to solvent	2 ratio to solvent	≥ 1.5 ratio to solvent	≥ 1.5 ratio to solvent
B19	1.1 ratio to solvent	2.9 ratio to solvent	≥ 1.5 ratio to solvent	
B20	1.6 ratio to solvent	2.4 ratio to solvent	≥ 1.5 ratio to solvent	≥ 1.5 ratio to solvent
B21	2.6 ratio to solvent	2 ratio to solvent	≥ 1.5 ratio to solvent	≥ 1.5 ratio to solvent

Binder	MFI (solvent ratio) (HLA-A*24:02 [1])	MFI (solvent ratio) (HLA-A*02:01 [2])	MFI (solvent ratio) (HLA-A*02:01 [3])	MFI (solvent ratio) (HLA-A*24:02 [4])
B22	3.8 ratio to solvent			≥ 1.5 ratio to solvent
B23	3.5 ratio to solvent	1.9 ratio to solvent	≥ 1.5 ratio to solvent	≥ 1.5 ratio to solvent
B24	3.1 ratio to solvent	2.5 ratio to solvent	≥ 1.5 ratio to solvent	≥ 1.5 ratio to solvent
B25	2.7 ratio to solvent	1.2 ratio to solvent		≥ 1.5 ratio to solvent
B26	2.7 ratio to solvent	0.9 ratio to solvent		≥ 1.5 ratio to solvent
B27	1.8 ratio to solvent	1.1 ratio to solvent		≥ 1.5 ratio to solvent
B28	3 ratio to solvent	1.9 ratio to solvent	≥ 1.5 ratio to solvent	≥ 1.5 ratio to solvent
B29	1.1 ratio to solvent	1.6 ratio to solvent	≥ 1.5 ratio to solvent	
B30	1.6 ratio to solvent			≥ 1.5 ratio to solvent
B31	2 ratio to solvent	0.9 ratio to solvent		≥ 1.5 ratio to solvent
B32	2.3 ratio to solvent	1 ratio to solvent		≥ 1.5 ratio to solvent
B33	1 ratio to solvent	3.3 ratio to solvent	≥ 1.5 ratio to solvent	
B34	1.2 ratio to solvent	2.1 ratio to solvent	≥ 1.5 ratio to solvent	
B35	3.2 ratio to solvent	1 ratio to solvent		≥ 1.5 ratio to solvent
B36	2.7 ratio to solvent	1 ratio to solvent		≥ 1.5 ratio to solvent
B37	2.4 ratio to solvent	1.1 ratio to solvent		≥ 1.5 ratio to solvent
B38	2.2 ratio to solvent	1.1 ratio to solvent		≥ 1.5 ratio to solvent
B39	1 ratio to solvent	2 ratio to solvent	≥ 1.5 ratio to solvent	
B40	1.1 ratio to solvent	2.6 ratio to solvent	≥ 1.5 ratio to solvent	
B41	1 ratio to solvent	3.6 ratio to solvent	≥ 1.5 ratio to solvent	
B42	1 ratio to solvent	3.4 ratio to solvent	≥ 1.5 ratio to solvent	
